The values that follow are results of earlier work, collected in patent US10954506B2 (priority 2013, dated 2021).

For this data set the following is noted: in vivo, iv.

B1: BChE: Butyrylcholinesterase, natural stoichiometric bioscavenger found as soluble protein in human plasma (protein, UniProt P06276 29-602, looked up)
Cholinesterase: EDDIIIATKNGKVRGMNLTVFGGTVTAFLGIPYAQPPLGRLRFKKPQSLTKWSDIWNATKYANSCCQNIDQSFPGFHGSEMWNPNTDLSEDCLYLNVWIPAPKPKNATVLIWIYGGGFQTGTSSLHVYDGKFLARVERVIVVSMNYRVGALGFLALPGNPEAPGNMGLFDQQLALQWVQKNIAAFGGNPKSVTLFGESAGAASVSLHLLSPGSHSLFTRAILQSGSFNAPWAVTSLYEARNRTLNLAKLTGCSRENETEIIKCLRNKDPQEILLNEAFVVPYGTPLSVNFGPTVDGDFLTDMPDILLELGQFKKTQILVGVNKDEGTAFLVYGAPGFSKDNNSIITRKEFQEGLKIFFPGVSEFGKESILFHYTDWVDDQRPENYREALGDVVGDYNFICPALEFTKKFSEWGNNAFFYYFEHRSSKLPWPEWMGVMHGYEIEFVFGLPLERRDNYTKAEEILSRSIVKRWANFAKYGNPNETQNNSTSWPVFKSTEQKYLTLNTESTRIMTKLRAQQCRFWTSFFPKVLEMTGNIDEAEWEWKAGFHRWNNYMMDWKNQFNDYTSKKESCVGL
In the case of B1, the effective dose result is given as “about 3 mg/kg”.
